Measured values: patent publication US20180369374A1 (published 2018)

What was measured:
[1] = target: T1, mCTLA-4-His (Life Technologies) (mouse, UniProt P09793 36-162, limits assumed); assay: ELISA, HeLa supernatant on mCTLA-4-His-coated plates, HRP-goat anti-mouse IgG Fc detection
T1 construct: Bought reagent coated on ELISA plates; also called CTLA-4-coated plates; not shown: His tag
Method: The following mRNAs encoding anti-CTLA-4 antibody heavy and light chains (HC and LC mRNAs) were designed and assayed for expression by measuring both CTLA-4-bound antibody and total IgG produced (FIG. 1): (1) 9D9 VH:mIgG2a (IgG2a^a allele) plus 9D9 VL:mIgGk; and (2) 9D9 VH:mIgG2b plus 9D9 VL:mIgGk. HeLa cells were transfected in 6-well plates with mRNA formulated in Lipofectamine 2000. Cell supernatants were harvested at 18 hours post transfection. Supernatants were assayed for binding to CTLA-4-coated plates (mCTLA-4-His (Life Technologies)) and detection was with HRP-Goat anti-mouse IgG Fc, 1:10000 (JIR). Purified 9D9 antibody (BioXcell) was used for the standard curve in the CTLA-4-binding ELISA. The Mouse IgG total ELISA Ready-SET-Go® assay (eBioscience) was used for quantitating total mouse IgG, with a mouse IgG internal standard.

[2] = target: T2, OX40R on mouse CD4+ T-cells (mouse, UniProt P47741 20-272); assay: cell-based or functional assay
T2 sequence (looked up): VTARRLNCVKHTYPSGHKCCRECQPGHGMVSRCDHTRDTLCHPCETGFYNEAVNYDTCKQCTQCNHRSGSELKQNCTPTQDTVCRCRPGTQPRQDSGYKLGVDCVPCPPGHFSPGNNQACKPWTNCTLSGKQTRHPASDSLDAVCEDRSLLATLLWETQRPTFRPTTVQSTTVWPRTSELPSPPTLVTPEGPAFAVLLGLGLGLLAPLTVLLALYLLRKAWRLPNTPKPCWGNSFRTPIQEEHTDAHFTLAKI

B1: 9D9 IgG2a antibody (9D9 VH:mIgG2a (IgG2a^a allele) plus 9D9 VL:mIgGk), mRNA-encoded (antibody)
heavy: EAKLQESGPVLVKPGASVKMSCKASGYTFTDYYMNWVKQSHGKSLEWIGVINPYNGDTSYNQKFKGKATLTVDKSSSTAYMELNSLTSEDSAVYYCARYYGSWFAYWGQGTLITVSTAKTTAPSVYPLAPVCGDTTGSSVTLGCLVKGYFPEPVTLTWNSGSLSSGVHTFPAVLQSDLYTLSSSVTVTSSTWPSQSITCNVAHPASSTKVDKKIEPRGPTIKPCPPCKCPAPNLLGGPSVFIFPPKIKDVLMISLSPIVTCVVVDVSEDDPDVQISWFVNNVEVHTAQTQTHREDYNSTLRVVSALPIQHQDWMSGKEFKCKVNNKDLPAPIERTISKPKGSVRAPQVYVLPPPEEEMTKKQVTLTCMVTDFMPEDIYVEWTNNGKTELNYKNTEPVLDSDGSYFMYSKLRVEKKNWVERNSYSCSVVHEGLHNHHTTKSFSRTPGK
light: DIVMTQTTLSLPVSLGDQASISCRSSQSIVHSNGNTYLEWYLQKPGQSPKLLIYKVSNRFSGVPDRFSGSGSGTDFTLKISRVEAEDLGVYYCFQGSHVPYTFGGGTKLEIKRADAAPTVSIFPPSSEQLTSGGASVVCFLNNFYPKDINVKWKIDGSERQNGVLNSWTDQDSKDSTYSMSSTLTLTKDEYERHNSYTCEATHKTSTSPIVKSFNRNEC
notes: Full heavy and light chains expressed from mRNA in HeLa cells, tested as cell supernatant; The entries are whole ORFs and may include a signal peptide; also called HC-2Aa:LC; 9D9 2a
Question: Does B1 bind [1]?
Answer: Result: binds

B2: 9D9 IgG2b antibody (9D9 VH:mIgG2b plus 9D9 VL:mIgGk), mRNA-encoded (antibody)
heavy: EAKLQESGPVLVKPGASVKMSCKASGYTFTDYYMNWVKQSHGKSLEWIGVINPYNGDTSYNQKFKGKATLTVDKSSSTAYMELNSLTSEDSAVYYCARYYGSWFAYWGQGTLITVSTAKTTPPSVYPLAPGCGDTTGSSVTLGCLVKGYFPESVTVTWNSGSLSSSVHTFPALLQSGLYTMSSSVTVPSSTWPSQTVTCSVAHPASSTTVDKKLEPSGPISTINPCPPCKECHKCPAPNLEGGPSVFIFPPNIKDVLMISLTPKVTCVVVDVSEDDPDVQISWFVNNVEVHTAQTQTHREDYNSTIRVVSTLPIQHQDWMSGKEFKCKVNNKDLPSPIERTISKIKGLVRAPQVYILPPPAEQLSRKDVSLTCLVVGFNPGDISVEWTSNGHTEENYKDTAPVLDSDGSYFIYSKLNMKTSKWEKTDSFSCNVRHEGLKNYYLKKTISRSPGK
light: B1 light
notes: Full heavy and light chains expressed from mRNA in HeLa cells, tested as cell supernatant; The entries are whole ORFs and may include a signal peptide; also called HC-2B:LC; 9D9 2b
Question: Does B2 bind [1]?
Answer: Result: binds

B3: murine OX40L polypeptide expressed from mOX40L_miR122 on B16F10 cells (ligand)
chain: MEGEGVQPLDENLENGSRPRFKWKKTLRLVVSGIKGAGMLLCFIYVCLQLSSSPAKDPPIQRLRGAVTRCEDGQLFISSYKNEYQTMEVQNNSVVIKCDGLYIIYLKGSFFQEVKIDLHFREDHNPISIPMLNDGRRIVFTVVASLAFKDKVYLTVNAPDTLCEHLQINDGELIVVQLTPGYCAPEGSYHSTVNQVPL
Question: B3 was tested. Which “mouse IL-2 production by CD4+ T-cells co-cultured with OX40L-expressing B16F10 cells (IL-2 ELISA), against mock-treated or non-translated mRNA control” value [2] did it give?
Answer: The value was about 2 fold.
